In PMC8395149, “Der f 38 Is a Novel TLR4-Binding Allergen Related to Allergy Pathogenesis from Dermatophagoides farinae” (International Journal of Molecular Sciences, 2021):
Read-outs that look alike come from different tables or passages of the source.

Target: T1, recombinant TLR4 (UniProt O00206 24-631)
T1 construct: Toll-like receptor 4 (TLR4), recombinant protein from R&D Systems; also called Toll-like receptor 4; source: bought: R&D Systems
Experiment: BLI; Octet QKe; recombinant TLR4 (1 ug/mL) immobilised in PBS by amine coupling on an AR2G sensor, blocked with 1 M ethanolamine pH 8.5; sensors dipped in 2-fold dilutions of Der f 38 (6400-400 nM and blank); association 300 s, dissociation 1200 s in assay buffer

T1 sequence (O00206 24-631): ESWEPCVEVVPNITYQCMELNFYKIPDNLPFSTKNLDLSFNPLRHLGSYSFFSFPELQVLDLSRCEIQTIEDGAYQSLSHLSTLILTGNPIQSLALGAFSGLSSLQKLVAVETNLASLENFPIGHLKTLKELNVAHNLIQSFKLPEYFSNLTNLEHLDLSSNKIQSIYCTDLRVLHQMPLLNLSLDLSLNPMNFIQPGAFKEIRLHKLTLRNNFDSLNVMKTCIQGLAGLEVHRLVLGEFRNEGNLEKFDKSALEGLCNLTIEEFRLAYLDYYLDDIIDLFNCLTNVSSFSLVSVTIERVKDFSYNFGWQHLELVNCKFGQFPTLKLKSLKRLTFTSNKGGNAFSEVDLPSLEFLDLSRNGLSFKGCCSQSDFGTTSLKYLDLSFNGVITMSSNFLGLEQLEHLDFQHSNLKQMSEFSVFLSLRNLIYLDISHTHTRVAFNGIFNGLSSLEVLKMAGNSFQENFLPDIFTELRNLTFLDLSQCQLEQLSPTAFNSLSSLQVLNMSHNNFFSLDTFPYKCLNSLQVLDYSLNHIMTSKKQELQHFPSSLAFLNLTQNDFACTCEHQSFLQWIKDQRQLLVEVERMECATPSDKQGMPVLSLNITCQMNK

Molecule | Kd | Kd (both partners purified)
recombinant Der f 38 (natural protein) | 74 nM | –
recombinant MD2 (natural protein, UniProt Q9Y6Y9 19-160, looked up, MD2 (MD-2, lymphocyte antigen 96), recombinant protein from R&D Systems; source: bought: R&D Systems) QKQYWVCNSSDASISYTYCDKMQYPISINVNPCIELKRSKGLLHIFYIPRRDLKQLYFNLYITVNTMNLPKRKEVICRGSDDDYSFCRALKGETVNTTISFSFKGIKFSKGKYKCVVEAISGSPEEMLFCLEFVILHQPNSN | – | 1.56 nM
